Type in all cases: biochemical
Assay [1] relates to primary bile acids cholic acid and chenodeoxycholic acid. In words: Lysate experiments for cholesterol oxidoreductase activity, substrate primary bile acids. Conditions: E. coli lysate expressing the enzyme. The procedure: FIG. 12A-12B CORs from human-associated gut microbes accept cholesterol and coprostanol but not primary bile acids. Activity assay with E. coli lysates (PBS, pH=7.4) expressing one of the cholesterol oxidoreductase enzymes from human-associated microbes with FIG. 12A. […] EIC for the products of both reactions are shown.
500 mL of a culture of E. coli BL21 expressing one of the cholesterol oxidoreductase homologs were pelleted by centrifugation (20 min at 7,000 g and 4° C.), resuspended in 10 mL of ice-cold phosphate-buffered saline containing one cOmplete Protease Inhibitor cocktail tablet (Roche Diagnostics) and lysed by a cell disruptor (EmulsiFlex-C3, Avestin). Cell debris was removed by ultracentrifugation (30 min at 20,000 g and 4° C.). Protein expression was confirmed by SDS-PAGE analysis using 4-20% Mini-PROTEAN TGX gels (Bio-Rad Laboratories). Gels were stained with Coomassie Blue for visualization. The clarified supernatant was used directly in the cell lysate assay described below. Cholesterol or coprostanol (5 μL of a 10 mM solution of cholesterol or coprostanol in methanol) was added to 500 μL of clarified supernatant with 100 μM of NADP^+ and NAD^+. After incubation at 37° C. for 12 h, the reaction mixtures were frozen until being analyzed using LC-MS.

For a further assay, the system named is coprostanol. In words: Lysate experiments for cholesterol oxidoreductase activity, substrate coprostanol. The conditions noted are these: E. coli lysate expressing the enzyme, 100 μM coprostanol, 100 μM NADP+ and NAD+, 37° C. 12 h, LC-MS. As for the experimental part: (§1) Candidate cholesterol oxidoreductase genes were amplified from genomic DNA (for E. coprostanoligenes) and cloned into pET28b. DNA was extracted from stool samples (DNeasy PowerSoil Kit, Qiagen) (for CAG:217, CAG:251 and CAG:341) or purchased from Genewiz (Ordered sequences are listed in Table 6). PCR reactions were performed with Phusion High Fidelity polymerase, and PCR products were purified (Zymoclean gel DNA recovery kit, Zymo research). The resulting gene products were assembled into pET28b using Gibson assembly and transformed into Stellar™ Competent Cells. The identities of the constructs were confirmed with DNA sequencing and transformed into E. coli BL21 strains for expression. All constructs were grown in LB with kanamycin (50 μg/mL) with the exception of the strain expressing the homolog from CAG:180 which required growth in TB for protein expression. […]
(§2) 500 mL of a culture of E. coli BL21 expressing one of the cholesterol oxidoreductase homologs were pelleted by centrifugation (20 min at 7,000 g and 4° C.), resuspended in 10 mL of ice-cold phosphate-buffered saline containing one cOmplete Protease Inhibitor cocktail tablet (Roche Diagnostics) and lysed by a cell disruptor (EmulsiFlex-C3, Avestin). […] After incubation at 37° C. for 12 h, the reaction mixtures were frozen until being analyzed using LC-MS. […]

Assay [2] has as its system cholesterol. Kind of assay: In vitro activity assay of purified N-terminal His-tagged ECOP170 (cofactor dependence). Conditions: purified enzyme 1.5 μM, HEPES pH 7.5, 100 μM cholesterol, 100 μM NADP+ or NAD+. The procedure: FIG. 11 In vitro activity assay of purified N-terminal His-tagged ECOP170 expressed in BL21 E. coli. Activity assay with ECOP170 (1.5 μM) in HEPES (pH=7.5, 50 mM, 300 mM NaCl) with 100 μM cholesterol and either 100 μM of NADP^+ (red) or 100 μM of NAD^+ (blue). EICs of 2 (rt 2.60, 385.244→108.988) are shown for both conditions.
Proteins were overexpressed using the procedure described above. Cells from 200 mL of culture were pelleted by centrifugation, resuspended in 10 mL of ice-cold lysis buffer (300 mM NaCl, 10 mM imidazole, 50 mM HEPES, pH 7.5) containing one cOmplete Protease Inhibitor cocktail tablet, and lysed by 4 min of continuous passage through a cell disruptor (EmulsiFlex-C3, Avestin) at 15,000 lbs per square inch. Cell debris was removed by ultracentrifugation (20 min at 20,000×g and 4° C.), and the cell-free extract was applied to 0.5 mL of HisPur Ni-NTA Resin (Thermo Scientific) pre-equilibrated with lysis buffer by gentle rocking at 4° C. for 2 h. Non-absorbed materials and weakly bound proteins were removed by washing the column with 2×25 mL of wash buffer (300 mM NaCl, 20 mM imidazole, 50 mM HEPES, pH 7.5). His6-tagged protein was eluted with 5 mL of elution buffer (300 mM NaCl, 200 mM imidazole, 50 mM HEPES, pH 7.5). […]

The test system of assay [3] is cholesterol. In words: Lysate experiments for cholesterol oxidoreductase activity (E. coli BL21 lysates expressing COR/HSD enzymes), substrate cholesterol. The conditions noted are these: E. coli lysate expressing the enzyme, 100 μM cholesterol, 100 μM NADP+ and NAD+, 37° C. 12 h, LC-MS. As for the experimental part:
as §1, §2

Entries after “also recorded” stand apart in the source; their conditions may differ.

Consider one molecule from US12138285B2, “Cholesterol reducing compositions and methods of use thereof” (The Broad Institute, Inc., priority 2019, dated 2024).

B1: ECOP170: 3β-hydroxysteroid dehydrogenase / cholesterol oxidoreductase (COR, IsmA) enzyme from E. coprostanoligenes (protein)
chain: MSTCWLQGKTVVVTGASGGMGAGIAATLIKKHGCTVIGVARNEKKMLKFVDELGETYAKQFSYELFDVSSKENWEKFAEELQEKGVKVDVLINNAGILPKFKRFDRYSYEEIERAMNINFYSCVYSVKTMLPMLLQSSTPAIINIDSSAALMTLAGTSMYSASKAALKGFTEALRVEFQGKMFVGLVCPGFTKTDIFSGQGDADMSNGAKVMDMISTDCDKMVKMIMFGIEHKTPMQVHGFDAHAMSVFNRLMPVYGSKLFSSIMRMSNVDIFKEVFSD
B1: the “oxidation of primary bile acids cholic acid and chenodeoxycholic acid to keto bile acids” value in assay [1] is “unable to oxidize the primary bile acids cholic acid and chenodeoxycholic acid; also recorded: did not oxidize the primary bile acids cholic acid and chenodeoxycholic acid”. In addition, the “oxidation of coprostanol (4) to coprostanone (3)” value in the assay on coprostanol was “converts coprostanol (4) to coprostanone (3); also recorded: catalyzed the oxidation of coprostanol (4) to coprostanone (3); also recorded: showed activity towards coprostanol”. Also, the “cofactor dependence of cholesterol oxidation” value in the assay on cholesterol [2] is “showed a strict dependence on NADP^+ and not NAD^+”. Also, the “oxidation of cholesterol (1) to cholestenone (2)” value in the assay on cholesterol [3] is recorded as “converts cholesterol (1) to cholestenone (2); also recorded: oxidized cholesterol to 2; also recorded: oxidized cholesterol to cholestenone”.
